In the DeepSol protein solubility set:

Test: soluble on expression in E. coli; label from the status in PepcDB or PDB records

Sequence	soluble on expression in E. coli
MPTTQINIVLAEPRCMAGEFFNAKVLLDSSDPDTVVHSFCAEIKGIGRTGWVNIHTDKIFETEKTYIDTQVQLCDSGTCLPVGKHQFPVQIRIPLNCPSSYESQFGSIRYQMKVELRASTDQASCSEVFPLVILTRSFFDDVPLNAMSPIDFKDEVDFTCCTLPFGCVSLNMSLTRTAFRIGESIEAVVTINNRTRKGLKEVALQLIMKTQFEARSRYEHVNEKKLAEQLIEMVPLGAVKSRCRMEFEKCLLRIPDAAPPTQNYNRGAGESSIIAIHYVLKLTALPGNGVLY	not soluble
MNVRNGKASTLRTNDVEPIKDSFSILIIGVDTSTTRASNGNPRSDSLILATFNVKDARVEMTSIPRDSYVHIEDSAKEINKYTKINAAHAYGGPELTMKTVEEEFKIPIDYYVRFDFDAFLKIIDALDGIDVDVPVNFTEQDSKDNQNAITLKKGPQHLNAEQALALARTRHIDSDIERGKRQQLIIKSIVSEATSVSSVSKYSDIIEVVGDNMKTNLTFNQMLSIAKFGMSNKIDIKSLNLKGDSNPMNGIYYYKLNESSVQSISNEFASELGIKQPFPGAAAYSDESSTASNLEHHHHHH	soluble
MSGSFELSVQDLNDLLSDGSGCYSLPSQPCNEVTPRIYVGNASVAQDIPKLQKLGITHVLNAAEGRSFMHVNTNANFYKDSGITYLGIKANDTQEFNLSAYFERAADFIDQALAQKNGRVLVHCREGYSRSPTLVIAYLMMRQKMDVKSALSIVRQNREIGPNDGFLAQLCQLNDRLAKEGKLKP	soluble
GRVESVWDLKGVWADQAQSDSQGSTTTATRNALPEHPNALAFQVSVVEASAYKPNTSSGQTQSTNSSPYLHLVKPKKVTQSDKLDDDLKNLLDPNQVRTKLRQSFGTDHSTQPQPQSLKTTTPVFGTSSGNLSSVLSGGGAGGGSSGSGQSGVDLSPVEKVSGWLVGQLPSTSDGNTSSTNNLAPNTNTGNDVVGVGRLSESNAAKMNDDVDGIVRTPLAELLDGEGQTADTGPQSVKFKSPDQIDFNRLFTHPVTDLFDPVTMLVYDQYIPLFIDIPASVNPKMVRLKVLSFDTNEQSLGLRLEFFKPDQDTQPNNNVQVNPNNGDFLPLLTASSQGPQTLFSPF	soluble
MRIGINVGSTQVDAVILSKHGKVVAASETVIQDDETVLAIKEALVSLIRYLRDTDEVRGVFIGATSECQEVKLGKGLAKTGLIRLNRYQSQIQPLMKWPKALSDHVVYTQSVEIGEELDWFNYFQESLARLKEAEVEAIAVVGAFSPMDNCSEQLVKESLNYHLPSIPVTMSHTIGSIGFLERENAAVLNAVLSKKMKNTLKGVKDFLSSLGFHCPLWVTRNDGCLMTIEEAIEFPVLTLGSGSANSFRGGAFLAEERSCIVVHVSEGITKIGTMIQERFEESHSQTYVFGIPTNLRMPHSIVLPLGEEKQGALGHDIRHGNPSEKTKREEVLISERKGISLAERHAGSSASNLEDQQEMWSTLKQSGLDREAMTQYAERVNDSIEELQIYDQELPIVVVGSGAPCMMQRLQSQTREVVAPFGYQRCHAVGACLGMVSAEVDQVYHLKDQTKAEVIEEAKEKAIKEAERKGAFPDTISIEQVEEYPFDYLQGEVIRIRVKAVGQVKDSLEHHHHHH	not soluble
RLSDTLMKQALSSVITQEKKRLKSQPKSIAQDIQPPNSMIKNALDEKDSHPFGDCFSDDEFLAIHLYTSCLYRPINHHLRYAPKNDVAPVVEAMNSGLAKLAQYPDYQVSGQLHRGIKQKMDDGEVMSRFKPGNTYRDDAFMSTSTRMDVTEEFTSDVTLHLQSSSAVNIGPFSKNPYEDEALIPPLTPFKVTGLHKQDDRWHVHLNEIAESSDE	not soluble
PREPVVNDEMCDVCEVWTAESLFPCRVCTRVFHDGCLRRMGYIQGDSAAEVTEMAHTETGWSCHYCDNINLLLTEE	soluble
MAHHHHHHSLNVLSVSSEIYPLIKTGGLADVVGALPIALEAHGVRTRTLIPGYPAVKAAVTDPVKCFEFTDLLGEKADLLEVQHERLDLLILDAPAYYERSGGPYLGQTGKDYPDNWKRFAALSLAAARIGAGVLPGWRPDMVHAHDWQAAMTPVYMRYAETPEIPSLLTIHNIAFQGQFGANIFSKLALPAHAFGMEGIEYYNDVSFLKGGLQTATALSTVSPSYAEEILTAEFGMGLEGVIGSRAHVLHGIVNGIDADVWNPATDHLIHDNYSAANLKNRALNKKAVAEHFRIDDDGSPLFCVISRLTWQKGIDLMAEAVDEIVSLGGRLVVLGAGDVALEGALLAAASRHHGRVGVAIGYNEPLSHLMQAGCDAIIIPSRFEPCGLTQLYALRYGCIPVVARTGGLADTVIDANHAALASKAATGVQFSPVTLDGLKQAIRRTVRYYHDPKLWTQMQKLGMKSDVSWEKSAGLYAALYSQLISKGHEG	not soluble
MASDYEAVNTNPYGVSDGELGPLKYGARFMNMQQRVIPIGSPSLTTGPGNDLQNTDLISSGNYIGYFGNNNNWGFNNEANWNFTDSRMNYAYQNFYSQIFLPWNEIYEIAKDSDSPSEQAILEIANIVRNIAWLRATDVFGPIAYNSAGDGSIAPKFDSQEVVYRSMLADLSKSVELLNTISYSVMAQYDLIYNGNVQNWVKLANSLMLRIVVRVHFIDETLAKEYITKALDPKNGGVIEDISSEAKIKSSDKMPLLNSMLASVNEYNETRMGATIWGYLDGYKDPRLSAYFTEGTYGSGSWAQTGYFPVAPTNSKSKSETSYSAKFASRPKVDSNSPLYWFRASETYFLKAEAALYNLIGGDPKTFYEQGINISFQEQGVSGVATYLSGTGKPTGLTGSNYKYGTYNHDLSIGNTSPKWDDYTGNLSKQEEQLQKIITQKYLALYPNAVEAWTEYRRTGFPYLMKPMDEAAPGRIGASIEDCRVPERFRFAPTAYNSNPNMAEIPTLLGGGDIGATKLWWVRSNRPKQPNQ	soluble
GLVPRGSHMYAELSPGTKKVYTQVRYLDDYHWEIEGSTITGIHKKSNVKVVIDVAKNREEADSLAGKDVNGIHIVAIPDNGVFYIKNGSFVLTYRYLKATLADINDHIVWSGFKVVEDNGKLVQEDVYEYLGAALVNHIKNNALAGQDYIFWQFYKCEECGKYVDIENLEAHLREHGIKLHEKSEEHYEVFELNFREGKVFDKFGGEVPMDKFSSEAREFIKEVLS	soluble
MAITEFDTSLPSIRQLQNLIKQAAPVEIKLVTGDAITGRVLWQDPTCVCIADENSRQTTIWKQAIAYLQPKG	soluble
MSLSKIIPFREEIFHQINQILESQKAFIFLWGKSGSGKSVLLQRLAKKYNVDFINENFKDQSFLKEKIEFLISQGQSLIILDEVGMYDYAMLESIRIYSDSISFVLSSHKKLNILKKEHFKSRLSACFKLKNISLLELDDYIKLKFGMNFSNKCLKFLQKISQGNLRYIDKTLKSFYEINSFFDKNKSQEYILKLSALENGLLREGHHHHHH	soluble
MSLKYGIIGAGAMGYRYGVMLQENAGVDVDFIDTWGPNVAKVREQGGVDVARDHQNHHVVPINIYYPEEYQGHPDVWIVFKKQMQLADELKRDASLFHEDQYVFAAMNGMGHFEKIAQYFPENHIIGGTAMIATVLNGPGTVDFMGPKGSEAMHMSKYAGHIDTTTKQVMADFKAADLNPIWSDNFMGMCMSKVVFNAVTNSLCTMFEIQMGQFIEYPGVKDMATQMFNEAYDACERAGIKLIETRQEEIDSVETVSRAYKYHYPSMYQDFSKGRPTEVDYINGYIAKIGREHDYVCRVHEFVTHEVHLAEMMRQYRHPEIPVAEKEGHHHHHH	not soluble
VNKKDITYWEKRQERKYLAGEKKLDEYYKGLQKAFRQAKREIQSVINDFYMRYAKENKVSYAEAQKLLDKAEIGELQDFIDLVNKNMGKYNRKLNNMSIKARITRYQALEKQIDAILQQLYAIEYEYKGKELLKEVYEDSYYRTWFNIDQYHGFHQEFAQINPRTIEELIKYPWNGASFSDRIWKQKDHMLQVLKEDITTMLIQGKNPQTLARDFARRFKTKEYEAYRLLHTESSFIIEQGTLAAYKEDGVEKYQILATLDMRTSDICRSEDGKIYDVDEATVGVNYPPYHPFCRTTTVPYYEDAEVGTRVARDPVTGRSYEVPANMTYEQWKNRYIDQPDNIIRQEILSNPERLDNYSIQHYNKHKEGTKQYEQYKQSRLKKGQTEQSSLLISYDEAKEIIKKYAGTGVFSRDRKGKWRNEEFVDVDSIIGVVHNIDGTVTPTNRIQIKYGKNSVHIVPVLPRKERNK	soluble
